Experimental data from patent US20260139023A1 (Dana-Farber, published 2026).

Legend:
[1] = molecular target: T1, recombinant human integrin αVβ5 ectodomain (human, UniProt P06756 32-991; P18084 24-717, glycosylated with heterogeneous glycans); experiment: fluorescence anisotropy competition: 50 nM A488-irisin-WT probe and 1000 nM αVβ5, unlabeled irisin-WT varied 0-4000 nM
T1 construct: range 32-991;range 24-717; Used in the solution assays (anisotropy, MST, HDX-MS, FRET); An introduced Cys and the rest of the HRV3C site would remain after cleavage; also called αVβ5 alone; αVβ5/Mn2+

[2] = molecular target: T1, recombinant human integrin αVβ5 …; experiment: fluorescence anisotropy, A488-irisin-bac, αVβ5 varied 0-6000 nM, 1 mM MnCl2
[3] = molecular target: T1, recombinant human integrin αVβ5 …; experiment: fluorescence anisotropy, A488-irisin-bac, varied αVβ5, 1 mM MnCl2 (FIG. 7D); direct binding, A488-irisin-bac (FIG. 7D)
[4] = molecular target: T1, recombinant human integrin αVβ5 …; experiment: fluorescence anisotropy competition, 50 nM A488-irisin-bac and 1000 nM αVβ5, varied unlabeled irisin-bac (FIG. 7E); competition, unlabeled irisin-bac vs A488-irisin-bac (FIG. 7E)
[5] = molecular target: T1, recombinant human integrin αVβ5 …; experiment: fluorescence anisotropy, compared with irisin-mam on αVβ5
[6] = molecular target: T1, recombinant human integrin αVβ5 …; experiment: fluorescence anisotropy competition, 50 nM A488-irisin-WT (bacterial) and 1000 nM αVβ5, varied unlabeled irisin-WT (FIG. 7F); competition, wild type bacterial dimer, run beside R75E (FIG. 7F)
[7] = molecular target: T1, recombinant human integrin αVβ5 …; experiment: fluorescence anisotropy competition: 50 nM A488-irisin-bac probe and 1000 nM αVβ5, unlabeled irisin-bac varied 0-4000 nM
[8] = molecular target: T1, recombinant human integrin αVβ5 …; experiment: fluorescence anisotropy competition: 50 nM A488-irisin-WT probe and 1000 nM αVβ5, unlabeled irisin-R75E varied 0-4000 nM
[9] = molecular target: T1, recombinant human integrin αVβ5 …; experiment: fluorescence anisotropy competition, 50 nM A488-irisin-WT (bacterial) and 1000 nM αVβ5, varied unlabeled irisin-R75E (FIG. 7F); competition, R75E monomer mutant (FIG. 7F)
[10] = molecular target: T2, αVβ5/Hsp90α complex (reconstituted from recombinant human αVβ5 ectodomain and recombinant human Hsp90α) (human, UniProt P06756 32-991; P18084 24-717; P07900 2-732, glycosylated); experiment: fluorescence anisotropy competition: unlabeled WT irisin (0 to 6000 nM) against the labelled WT irisin probe on the αVβ5/Hsp90 complex; black curve
T2 construct: range 32-991;range 24-717;mature; also called integrin/Hsp90α complex

[11] = molecular target: T2, αVβ5/Hsp90α complex (reconstituted from …); experiment: fluorescence anisotropy competition: 50 nM A488-irisin-His probe and 125 nM αVβ5 (as αVβ5/Hsp90α complex), unlabeled untagged irisin varied 0-6000 nM
From the text: (§1) The domain boundaries are as follows: αV, 32-991; β5, 24-717.

[12] = molecular target: T2, αVβ5/Hsp90α complex (reconstituted from …); experiment: fluorescence anisotropy competition, 50 nM A488-irisin-His and 125 nM αVβ5/Hsp90α, varied unlabeled untagged irisin (FIG. 1H)
From the text: as §1

[13] = molecular target: T1, recombinant human integrin αVβ5 …; experiment: fluorescence anisotropy, direct binding: labelled irisin N45Q with varied aVß5 concentration (0 to 1000 nM); grey curve and grey label
[14] = molecular target: T2, αVβ5/Hsp90α complex (reconstituted from …); experiment: fluorescence anisotropy competition: unlabeled N45Q (0 to 6000 nM) against the labelled WT irisin probe on the αVβ5/Hsp90 complex; grey curve
[15] = molecular target: T3, recombinant human Hsp90α (purified from E. coli, untagged) (human, UniProt P07900 2-732); experiment: fluorescence anisotropy binding assay with labelled irisin, Hsp90α without nucleotide or charged with ATP, AMP-PNP or ADP varied 0-2500 nM
T3 construct: mature; Tested as Apo and as ATP-, AMP-PNP- and ADP-charged forms; also called eHsp90α; Hsp90α-Apo

[16] = molecular target: T4, clasped and tagged αVβ5 (recombinant human αVβ5 ectodomain with C-terminal coiled-coil clasp and affinity … (human, UniProt P06756 32-991; P18084 24-717, glycosylated); experiment: BLI (Octet RED384), clasped and tagged αVβ5 on streptavidin sensors, 1 mM MgCl2 and 1 mM CaCl2; affinity-purified αVβ5 preparation that still held co-purified Hsp90α (FIG. 1B)
T4 construct: range 32-991;range 24-717; Used in BLI (streptavidin sensors) and TALON pull-downs; also called clasped αVβ5; immobilized clasped αVβ5; not shown: introduced Cys, HRV3C site, acidic α-helical coiled-coil and twin Strep-II tag; introduced Cys, HRV3C site, basic α-helical coiled-coil and 8xHis tag
Procedure: as §1
Biolayer Inferometry (BLI) measurements were conducted by Octet RED384. […] Data analysis HT software was used for the fitting and Kd calculations.

[17] = molecular target: T1, recombinant human integrin αVβ5 …; experiment: fluorescence anisotropy binding assay with labelled irisin, αVβ5 varied 0-1000 nM as the positive curve beside the Hsp90α curves; buffer and activation state of αVβ5 not given in the legend
[18] = molecular target: T2, αVβ5/Hsp90α complex (reconstituted from …); experiment: summary sentence of Example 2: αVβ5 receptor activated by eHsp90α; αVβ5 activated by eHsp90α; rounded summary value
[19] = molecular target: T1, recombinant human integrin αVβ5 …; experiment: fluorescence anisotropy, direct binding: labelled irisin WT with varied aVß5 concentration (0 to 1000 nM); black curve and black label
[20] = molecular target: T2, αVβ5/Hsp90α complex (reconstituted from …); experiment: fluorescence anisotropy competition, 50 nM A488-irisin-His and 125 nM αVβ5/Hsp90α, varied unlabeled irisin-His (FIG. 1H)
From the text: as §1

[21] = molecular target: T2, αVβ5/Hsp90α complex (reconstituted from …); experiment: fluorescence anisotropy competition: 50 nM A488-irisin-His probe and 125 nM αVβ5 (as αVβ5/Hsp90α complex), unlabeled irisin-His varied 0-6000 nM
From the text: as §1

[22] = molecular target: T1, recombinant human integrin αVβ5 …; experiment: fluorescence anisotropy competition: 50 nM A488-irisin-bac probe and 1000 nM αVβ5, unlabeled irisin-mam (irisin-His) varied 0-4000 nM
[23] = molecular target: T1, recombinant human integrin αVβ5 …; experiment: fluorescence anisotropy competition, 50 nM A488-irisin-bac and 1000 nM αVβ5, varied unlabeled irisin-mam (irisin-His) (FIG. 7E); competition, unlabeled irisin-mam vs A488-irisin-bac (FIG. 7E)
[24] = molecular target: T2, αVβ5/Hsp90α complex (reconstituted from …); experiment: fluorescence anisotropy, 50 nM A488-irisin-His, varied αVβ5/Hsp90α complex, 1 mM MgCl2 and 1 mM CaCl2 (FIG. 1G)
From the text: as §1

[25] = molecular target: T1, recombinant human integrin αVβ5 …; experiment: fluorescence anisotropy, 50 nM A488-irisin-His, αVβ5 in 1 mM MnCl2 (FIG. 4D)
[26] = molecular target: T2, αVβ5/Hsp90α complex (reconstituted from …); experiment: fluorescence anisotropy, 50 nM A488-irisin-His, αVβ5/Hsp90α complex in 1 mM MgCl2 and 1 mM CaCl2 (FIG. 4D)

B1: irisin-bac (non-glycosylated irisin dimer produced in bacteria) (ligand, UniProt Q8K4Z2 61-171, looked up)
chain: SPSAPVNVTVRHLKANSAVVSWDVLEDEVVIGFAISQQKKDVRMLRFIQEVNTTTRSCALWDLEEDTEYIVHVQAISIQGQSPASEPVLFKTPREAEKMASKNKDEVTMKE
modifications: Alexa Fluor 488 label where used as probe
notes: also called A488-irisin-bac
IC50 [1]: 1270 nM
Kd [2]: 317 nM
Kd [3]: 256 nM
Kd [4]: 294 nM
fold weaker affinity than irisin-mam [5]: ~8 fold
Kd [6]: 299 nM
IC50 [7]: 1190 nM

B2: irisin-R75E (non-glycosylated irisin monomer mutant R75E from bacteria) (ligand, UniProt Q8K4Z2-1 30-140, looked up)
chain: SPSAPVNVTVRHLKANSAVVSWDVLEDEVVIGFAISQQKKDVRMLEFIQEVNTTTRSCALWDLEEDTEYIVHVQAISIQGQSPASEPVLFKTPREAEKMASKNKDEVTMKE
notes: also called monomeric mutant
IC50 [8]: 198 nM
Kd [9]: 42 nM

B3: untagged irisin (wild-type, glycosylated recombinant irisin from mammalian cells) (ligand)
chain: DSPSAPVNVTVRHLKANSAVVSWDVLEDEVVIGFAISQQKKDVRMLRFIQEVNTTTRSCALWDLEEDTEYIVHVQAISIQGQSPASEPVLFKTPREAEKMASKNKDEVTMKE
modifications: N-glycosylated at N36, N45 and N81 (numbers as printed)
notes: also called unlabeled and untagged irisin; WT irisin
IC50 [10]: 440 nM
Ki [10]: 56 nM
IC50 [11]: 477 nM
Kd [12]: 50 nM

B4: irisin N45Q mutant (irisin glycosylation mutant, recombinant, from mammalian Expi293 cells) (ligand)
chain: DSPSAPVNVTVRHLKAQSAVVSWDVLEDEVVIGFAISQQKKDVRMLRFIQEVNTTTRSCALWDLEEDTEYIVHVQAISIQGQSPASEPVLFKTPREAEKMASKNKDEVTMKE
modifications: glycosylated at positions 36 and 81; position 45 is Q, not N-glycosylated
Kd [13]: 32 nM
IC50 [14]: 35 nM
Ki [14]: 9 nM

B5: irisin-His (wild-type, glycosylated recombinant irisin, His tagged, from mammalian cells) (ligand)
chain: DSPSAPVNVTVRHLKANSAVVSWDVLEDEVVIGFAISQQKKDVRMLRFIQEVNTTTRSCALWDLEEDTEYIVHVQAISIQGQSPASEPVLFKTPREAEKMASKNKDEVTMKEHHHHHHHHHHRDPLEVLFQ
modifications: N-glycosylated at N36, N45 and N81 (numbers as printed); Alexa Fluor 488, 555 or 647 label where the assay says so
notes: Monomer by SEC-MALS; also called irisin-mam; A488-irisin-His
binding result [15]: no binding (tested: 2500 nM)
Kd [16]: 212 nM
Kd [17]: 43 nM
Kd [18]: ~30 nM
Kd [19]: 6 nM
Kd [20]: 52 nM
IC50 [21]: 499 nM
IC50 [22]: 165 nM
Kd [23]: 35 nM
Kd [24]: 31 nM
Kd [25]: 28 nM
Kd [26]: 37 nM
